Laboratory results as given in article PMC9520404, “G-quadruplexes formation within the promoter of TEAD4 oncogene and their interaction with Vimentin”.

Columns and labels:
Vimentin [1] = target: T1, Vimentin (human, UniProt P08670 1-466); assay: EMSA; 150 mM KCl; 8 uM Vimentin, 500 nM DNA; 5 mM Tris pH 8.4, 150 mM KCl, 1 h at room temperature; 1.5% agarose in 1x TBE + 10 mM KCl, run at 4 C; conditions: protein: recombinant
Vimentin [2] = target: T1, Vimentin; assay: EMSA; DNA annealed in 150 mM KCl; 8 uM Vimentin, 500 nM DNA; 5 mM Tris pH 8.4, 150 mM KCl, 1 h at room temperature; 1.5% agarose in 1x TBE + 10 mM KCl, run at 4 C; conditions: protein: recombinant; parallel G4-repeat after annealing in 150 mM KCl
Vimentin [3] = target: T1, Vimentin; assay: EMSA; DNA annealed in 150 mM KCl; no free DNA left; 8 uM Vimentin, 500 nM DNA; 5 mM Tris pH 8.4, 150 mM KCl, 1 h at room temperature; 1.5% agarose in 1x TBE + 10 mM KCl, run at 4 C; conditions: protein: recombinant; parallel G4-repeat

T1 sequence (P08670 whole entry): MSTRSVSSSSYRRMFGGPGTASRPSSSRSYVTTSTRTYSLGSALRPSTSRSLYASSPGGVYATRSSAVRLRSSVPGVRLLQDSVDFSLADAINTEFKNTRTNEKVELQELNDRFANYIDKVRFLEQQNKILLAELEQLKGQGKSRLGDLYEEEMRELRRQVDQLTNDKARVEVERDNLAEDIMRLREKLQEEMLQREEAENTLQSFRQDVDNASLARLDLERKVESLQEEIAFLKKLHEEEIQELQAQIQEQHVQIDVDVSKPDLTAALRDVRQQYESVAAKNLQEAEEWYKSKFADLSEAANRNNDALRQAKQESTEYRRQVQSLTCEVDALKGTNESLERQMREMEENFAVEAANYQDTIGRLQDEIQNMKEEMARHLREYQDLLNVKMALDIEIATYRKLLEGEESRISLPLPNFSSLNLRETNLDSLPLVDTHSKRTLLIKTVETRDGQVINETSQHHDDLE

CGGGCGGGCGAGGGGCCGGGC (structured_DNA) [TEAD4-near]
binding result (Vimentin [1]; intramolecular G4, mainly antiparallel): no binding

CGGGGCGGGGCGGGGCCGGGC (structured_DNA) [TEAD4-far]
binding result (Vimentin [1]; G4, parallel and antiparallel components): no binding

CGGGCGGGCGAGGGGCCGGGCCGCCGGGGCGGGGCGGGGCCGGGC (structured_DNA) [TEAD4-full]
binding result (Vimentin [2]): binds

CGGGCGGGCGAGGGGCCGGGTTGTTGGGGCGGGGCGGGGCCGGGC (structured_DNA) [TEAD4-full-2TT]
binding result (Vimentin [3]): binds
